The target of experiment [1] is T1, human FcγRIII (CD16), CD16a (F158), on CD16-transfected Jurkat cells (human, UniProt P08637 17-254).
T1 construct: whole, on cells
Briefly: CD16 bridging assay, transient.

Experiment [2] deals with T2, human C1q (Sigma C0660) (human, UniProt P02745 23-245; P02746 28-253; P02747 29-245).
T2 construct: Bought protein; also called complement protein C1q
Briefly: C1q ELISA on CD2, transient. How it is done:
The C1q binding assay was performed by coating 96 well Maxisorb ELISA plates (Nalge-Nunc Rochester, N.Y., USA) with 50 μl recombinant soluble human CD2 at 10 μg/ml overnight at 4° C. in PBS. The wells were aspirated and washed three times with wash buffer (PBS, 0.05% Tween 20) and blocked for >1 h with 200 μ/well of block/diluent buffer (0.1 M Na₂HPO₄, pH 7, 0.1 M NaCl, 0.05% Tween 20, 0.1% gelatin). The antibody to be tested was diluted in block/diluent buffer starting at 15 μg/ml with 3-fold dilutions. 50 μl were added per well, and the plates incubated for 2 h at room temperature. After aspirating and washing as above, 50 μl/well of 2 μg/ml of Sigma human C1q (C0660) diluted in block/diluent buffer was added and incubated for 1.5 h at room temperature. After aspirating and washing as above, 50 μl/well of chicken anti human C1q (Cedarlane laboratories CL2101AP), diluted 2,000-fold in block/diluent buffer, was added. After incubation for 1.5 h at room temperature, the wells were aspirated and washed as above. 50 μl/well of donkey F(ab′)₂ anti chicken IgY HRP conjugate (Jackson ImmunoResearch 703-036-155) diluted to 1:5,000 in block/diluent was then added, and the wells incubated for 1 h at room temperature. After aspirating and washing as above, 100 μl TMB substrate (420 μM TMB, 0.004% H₂O₂ in 0.1 M sodium acetate/citric acid buffer, pH 4.9) was added and incubated for 2 min before the reaction was stopped with 100 μl 2 N sulfuric acid. The absorbance was read at 450 nm with a Softmax P instrument, and Softmax software was used to determine the relative binding affinity (C value) with a 4-parameter fit.

Experiment [3] deals with T1, human FcγRIII (CD16), CD16a (F158), on …. Description: CD16 bridging assay, transient. The source holds these as a separate data set.

Read-outs that look alike come from different tables or passages of the source.

T2 sequence (P02745 23-245 limits assumed, chain 1 of 3): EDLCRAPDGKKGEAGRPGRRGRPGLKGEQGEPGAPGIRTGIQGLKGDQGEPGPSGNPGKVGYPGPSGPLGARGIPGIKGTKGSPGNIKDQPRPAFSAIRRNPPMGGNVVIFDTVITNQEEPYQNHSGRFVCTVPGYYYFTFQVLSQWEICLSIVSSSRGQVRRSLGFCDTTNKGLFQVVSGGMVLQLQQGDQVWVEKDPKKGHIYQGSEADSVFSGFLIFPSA
T2 sequence (P02746 28-253 limits assumed, chain 2 of 3): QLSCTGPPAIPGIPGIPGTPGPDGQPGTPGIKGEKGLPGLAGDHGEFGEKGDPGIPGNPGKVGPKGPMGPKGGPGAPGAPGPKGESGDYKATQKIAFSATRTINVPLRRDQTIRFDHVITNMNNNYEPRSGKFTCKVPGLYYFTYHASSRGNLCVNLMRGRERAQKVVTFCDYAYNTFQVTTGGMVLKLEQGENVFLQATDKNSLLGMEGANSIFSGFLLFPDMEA
T2 sequence (P02747 29-245 limits assumed, chain 3 of 3): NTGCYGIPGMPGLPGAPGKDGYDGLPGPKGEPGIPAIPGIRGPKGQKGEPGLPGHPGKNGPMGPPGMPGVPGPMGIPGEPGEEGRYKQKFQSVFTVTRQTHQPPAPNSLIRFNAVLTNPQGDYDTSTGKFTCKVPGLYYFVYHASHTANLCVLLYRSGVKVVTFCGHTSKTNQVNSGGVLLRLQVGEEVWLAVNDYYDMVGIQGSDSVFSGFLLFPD
T1 sequence (P08637 17-254): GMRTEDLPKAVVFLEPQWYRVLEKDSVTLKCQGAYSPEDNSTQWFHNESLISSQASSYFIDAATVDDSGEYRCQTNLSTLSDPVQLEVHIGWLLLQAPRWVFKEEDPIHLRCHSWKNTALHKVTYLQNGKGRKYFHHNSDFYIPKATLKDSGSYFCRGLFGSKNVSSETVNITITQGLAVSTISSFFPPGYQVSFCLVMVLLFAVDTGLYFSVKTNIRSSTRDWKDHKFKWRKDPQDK

B1: chCB6-huIgG1 E294T (antibody, name in EU numbering)
heavy: not shown
light: QIVLTQSPAIMSASPGEKVTMTCRASSSVSHMHWYQQKSGTSPKRWIYDTSKLASGVPARFSGSGSGTSYSLTISSVEAEDAATYYCQQWSSNPLTFGAGTKLELKRTVAAPSVFIFPPSDEQLKSGTASVVCLLNNFYPREAKVQWKVDNALQSGNSQESVTEQDSKDSTYSLSSTLTLSKADYEKHKVYACEVTHQGLSSPVTKSFNRGEC
notes: copies: 2 + 2
As for B1, the “fold decrease in binding vs WT” value in experiment [1] worked out at 8 fold.

B2: chCB6-huIgG1 Y296Q (antibody, name in EU numbering)
heavy: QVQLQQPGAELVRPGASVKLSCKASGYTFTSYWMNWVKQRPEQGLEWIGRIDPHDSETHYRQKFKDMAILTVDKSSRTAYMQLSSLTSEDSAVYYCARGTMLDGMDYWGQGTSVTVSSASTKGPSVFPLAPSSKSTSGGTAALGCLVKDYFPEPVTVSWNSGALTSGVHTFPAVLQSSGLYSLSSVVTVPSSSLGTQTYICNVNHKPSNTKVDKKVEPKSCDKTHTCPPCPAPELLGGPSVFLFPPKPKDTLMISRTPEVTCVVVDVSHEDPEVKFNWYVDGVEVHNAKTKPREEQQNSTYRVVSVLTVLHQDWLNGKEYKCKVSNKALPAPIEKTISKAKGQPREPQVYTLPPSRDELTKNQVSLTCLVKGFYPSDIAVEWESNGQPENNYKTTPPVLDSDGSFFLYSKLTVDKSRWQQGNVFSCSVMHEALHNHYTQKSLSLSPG
light: QIVLTQSPAIMSASPGEKVTMTCRASSSVSHMHWYQQKSGTSPKRWIYDTSKLASGVPARFSGSGSGTSYSLTISSVEAEDAATYYCQQWSSNPLTFGAGTKLELKRTVAAPSVFIFPPSDEQLKSGTASVVCLLNNFYPREAKVQWKVDNALQSGNSQESVTEQDSKDSTYSLSSTLTLSKADYEKHKVYACEVTHQGLSSPVTKSFNRGEC
notes: copies: 2 + 2
For B2, the “fold decrease in binding vs WT” value in experiment [1] was 5 fold; in experiment [2] it was 4 fold.

B3: chCB6-huIgG1 E294N (antibody, name in EU numbering)
heavy: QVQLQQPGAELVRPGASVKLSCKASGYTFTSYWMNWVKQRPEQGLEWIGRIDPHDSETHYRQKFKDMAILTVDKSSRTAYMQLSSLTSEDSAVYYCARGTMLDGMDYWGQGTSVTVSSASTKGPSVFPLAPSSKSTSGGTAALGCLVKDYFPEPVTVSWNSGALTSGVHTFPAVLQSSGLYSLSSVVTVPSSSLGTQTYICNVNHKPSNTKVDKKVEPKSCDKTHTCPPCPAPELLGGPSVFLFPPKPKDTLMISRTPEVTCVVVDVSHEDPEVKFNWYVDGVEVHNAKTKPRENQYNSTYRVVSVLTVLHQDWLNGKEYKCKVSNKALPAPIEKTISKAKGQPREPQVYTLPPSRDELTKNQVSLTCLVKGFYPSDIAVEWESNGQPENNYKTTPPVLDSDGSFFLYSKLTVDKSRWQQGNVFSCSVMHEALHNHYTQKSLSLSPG
light: QIVLTQSPAIMSASPGEKVTMTCRASSSVSHMHWYQQKSGTSPKRWIYDTSKLASGVPARFSGSGSGTSYSLTISSVEAEDAATYYCQQWSSNPLTFGAGTKLELKRTVAAPSVFIFPPSDEQLKSGTASVVCLLNNFYPREAKVQWKVDNALQSGNSQESVTEQDSKDSTYSLSSTLTLSKADYEKHKVYACEVTHQGLSSPVTKSFNRGEC
notes: copies: 2 + 2
With B3, the “fold decrease in binding vs WT” value in experiment [1] is 8 fold; in experiment [2], 7 fold.

B4: chCB6-huIgG1 S239D/A378F (antibody, name in EU numbering)
heavy: not shown
light: QIVLTQSPAIMSASPGEKVTMTCRASSSVSHMHWYQQKSGTSPKRWIYDTSKLASGVPARFSGSGSGTSYSLTISSVEAEDAATYYCQQWSSNPLTFGAGTKLELKRTVAAPSVFIFPPSDEQLKSGTASVVCLLNNFYPREAKVQWKVDNALQSGNSQESVTEQDSKDSTYSLSSTLTLSKADYEKHKVYACEVTHQGLSSPVTKSFNRGEC
notes: copies: 2 + 2
B4: the “fold increase in binding vs WT” value in experiment [3] stood at 5 fold.

B5: chCB6-huIgG1 I332D/H435G (antibody, name in EU numbering)
heavy: not shown
light: QIVLTQSPAIMSASPGEKVTMTCRASSSVSHMHWYQQKSGTSPKRWIYDTSKLASGVPARFSGSGSGTSYSLTISSVEAEDAATYYCQQWSSNPLTFGAGTKLELKRTVAAPSVFIFPPSDEQLKSGTASVVCLLNNFYPREAKVQWKVDNALQSGNSQESVTEQDSKDSTYSLSSTLTLSKADYEKHKVYACEVTHQGLSSPVTKSFNRGEC
notes: copies: 2 + 2
For B5, the binding result in experiment [3] was “binds”.

B6: chCB6-huIgG1 S239D/A378Y (antibody, name in EU numbering)
heavy: not shown
light: QIVLTQSPAIMSASPGEKVTMTCRASSSVSHMHWYQQKSGTSPKRWIYDTSKLASGVPARFSGSGSGTSYSLTISSVEAEDAATYYCQQWSSNPLTFGAGTKLELKRTVAAPSVFIFPPSDEQLKSGTASVVCLLNNFYPREAKVQWKVDNALQSGNSQESVTEQDSKDSTYSLSSTLTLSKADYEKHKVYACEVTHQGLSSPVTKSFNRGEC
notes: copies: 2 + 2
Turning to B6, in experiment [3], the “fold increase in binding vs WT” value came to 4 fold.

B7: chCB6-huIgG1 R301T (antibody, name in EU numbering)
heavy: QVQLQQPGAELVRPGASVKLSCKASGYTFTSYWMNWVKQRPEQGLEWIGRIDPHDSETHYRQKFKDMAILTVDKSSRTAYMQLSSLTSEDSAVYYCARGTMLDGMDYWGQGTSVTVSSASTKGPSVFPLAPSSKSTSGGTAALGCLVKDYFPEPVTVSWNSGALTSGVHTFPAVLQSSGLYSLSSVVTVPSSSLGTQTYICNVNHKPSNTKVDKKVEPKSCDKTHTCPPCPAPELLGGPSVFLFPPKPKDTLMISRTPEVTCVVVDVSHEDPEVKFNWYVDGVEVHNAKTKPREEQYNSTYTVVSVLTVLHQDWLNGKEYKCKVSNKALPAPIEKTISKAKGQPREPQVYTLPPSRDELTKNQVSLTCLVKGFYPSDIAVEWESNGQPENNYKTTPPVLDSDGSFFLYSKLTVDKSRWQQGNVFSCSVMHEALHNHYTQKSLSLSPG
light: QIVLTQSPAIMSASPGEKVTMTCRASSSVSHMHWYQQKSGTSPKRWIYDTSKLASGVPARFSGSGSGTSYSLTISSVEAEDAATYYCQQWSSNPLTFGAGTKLELKRTVAAPSVFIFPPSDEQLKSGTASVVCLLNNFYPREAKVQWKVDNALQSGNSQESVTEQDSKDSTYSLSSTLTLSKADYEKHKVYACEVTHQGLSSPVTKSFNRGEC
notes: copies: 2 + 2
As to B7, the binding result in experiment [1] and in experiment [2] was “binds” each time.

B8: chCB6-huIgG1 S239D/A378W (antibody, name in EU numbering)
heavy: not shown
light: QIVLTQSPAIMSASPGEKVTMTCRASSSVSHMHWYQQKSGTSPKRWIYDTSKLASGVPARFSGSGSGTSYSLTISSVEAEDAATYYCQQWSSNPLTFGAGTKLELKRTVAAPSVFIFPPSDEQLKSGTASVVCLLNNFYPREAKVQWKVDNALQSGNSQESVTEQDSKDSTYSLSSTLTLSKADYEKHKVYACEVTHQGLSSPVTKSFNRGEC
notes: copies: 2 + 2
For the molecule B8, the “fold increase in binding vs WT” value in experiment [3] came out at 4 fold.

B9: chCB6-huIgG1 I332D/A378Y (antibody, name in EU numbering)
heavy: not shown
light: QIVLTQSPAIMSASPGEKVTMTCRASSSVSHMHWYQQKSGTSPKRWIYDTSKLASGVPARFSGSGSGTSYSLTISSVEAEDAATYYCQQWSSNPLTFGAGTKLELKRTVAAPSVFIFPPSDEQLKSGTASVVCLLNNFYPREAKVQWKVDNALQSGNSQESVTEQDSKDSTYSLSSTLTLSKADYEKHKVYACEVTHQGLSSPVTKSFNRGEC
notes: copies: 2 + 2
Turning to B9, the “fold increase in binding vs WT” value in experiment [3] stood at 5 fold.

B10: chCB6-huIgG1 S239D/A378K (antibody, name in EU numbering)
heavy: not shown
light: QIVLTQSPAIMSASPGEKVTMTCRASSSVSHMHWYQQKSGTSPKRWIYDTSKLASGVPARFSGSGSGTSYSLTISSVEAEDAATYYCQQWSSNPLTFGAGTKLELKRTVAAPSVFIFPPSDEQLKSGTASVVCLLNNFYPREAKVQWKVDNALQSGNSQESVTEQDSKDSTYSLSSTLTLSKADYEKHKVYACEVTHQGLSSPVTKSFNRGEC
notes: copies: 2 + 2
As for B10, in experiment [3], the “fold increase in binding vs WT” value is 5 fold.

B11: chCB6-huIgG1 R301A (antibody, name in EU numbering)
heavy: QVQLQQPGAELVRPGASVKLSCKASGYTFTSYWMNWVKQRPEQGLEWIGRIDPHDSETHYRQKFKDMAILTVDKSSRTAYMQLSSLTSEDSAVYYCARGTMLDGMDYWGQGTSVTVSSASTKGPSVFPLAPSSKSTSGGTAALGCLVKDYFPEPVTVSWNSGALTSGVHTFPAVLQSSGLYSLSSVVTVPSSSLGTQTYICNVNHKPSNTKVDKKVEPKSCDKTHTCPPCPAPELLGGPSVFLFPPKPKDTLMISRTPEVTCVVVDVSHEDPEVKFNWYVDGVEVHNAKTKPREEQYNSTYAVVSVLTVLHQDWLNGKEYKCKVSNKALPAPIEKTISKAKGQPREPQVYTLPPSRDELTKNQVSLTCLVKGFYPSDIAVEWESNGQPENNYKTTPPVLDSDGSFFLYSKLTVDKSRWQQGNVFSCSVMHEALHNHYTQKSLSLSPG
light: QIVLTQSPAIMSASPGEKVTMTCRASSSVSHMHWYQQKSGTSPKRWIYDTSKLASGVPARFSGSGSGTSYSLTISSVEAEDAATYYCQQWSSNPLTFGAGTKLELKRTVAAPSVFIFPPSDEQLKSGTASVVCLLNNFYPREAKVQWKVDNALQSGNSQESVTEQDSKDSTYSLSSTLTLSKADYEKHKVYACEVTHQGLSSPVTKSFNRGEC
notes: copies: 2 + 2
B11: the “fold decrease in binding vs WT” value in experiment [1] was found to be 5 fold. Further, the binding result in experiment [2] was “binds”.

B12: chCB6-huIgG1 Y296T (antibody, name in EU numbering)
heavy: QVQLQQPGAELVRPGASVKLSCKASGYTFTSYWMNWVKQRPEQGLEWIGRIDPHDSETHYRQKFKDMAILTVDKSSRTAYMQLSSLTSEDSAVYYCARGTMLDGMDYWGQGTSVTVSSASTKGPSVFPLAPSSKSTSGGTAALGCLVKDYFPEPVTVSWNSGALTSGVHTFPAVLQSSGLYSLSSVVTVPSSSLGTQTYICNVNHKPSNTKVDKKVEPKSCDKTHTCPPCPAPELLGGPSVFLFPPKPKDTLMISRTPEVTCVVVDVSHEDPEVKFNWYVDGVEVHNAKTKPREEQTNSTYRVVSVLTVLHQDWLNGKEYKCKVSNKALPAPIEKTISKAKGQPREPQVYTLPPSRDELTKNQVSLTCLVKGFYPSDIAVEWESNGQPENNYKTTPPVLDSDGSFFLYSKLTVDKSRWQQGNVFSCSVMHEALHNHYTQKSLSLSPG
light: QIVLTQSPAIMSASPGEKVTMTCRASSSVSHMHWYQQKSGTSPKRWIYDTSKLASGVPARFSGSGSGTSYSLTISSVEAEDAATYYCQQWSSNPLTFGAGTKLELKRTVAAPSVFIFPPSDEQLKSGTASVVCLLNNFYPREAKVQWKVDNALQSGNSQESVTEQDSKDSTYSLSSTLTLSKADYEKHKVYACEVTHQGLSSPVTKSFNRGEC
notes: copies: 2 + 2
For the molecule B12, the binding result in experiment [1] was “no binding”. Besides, the “fold decrease in binding vs WT” value in experiment [2] turned out to be 3 fold.

B13: chCB6-huIgG1 R301K (antibody, name in EU numbering)
heavy: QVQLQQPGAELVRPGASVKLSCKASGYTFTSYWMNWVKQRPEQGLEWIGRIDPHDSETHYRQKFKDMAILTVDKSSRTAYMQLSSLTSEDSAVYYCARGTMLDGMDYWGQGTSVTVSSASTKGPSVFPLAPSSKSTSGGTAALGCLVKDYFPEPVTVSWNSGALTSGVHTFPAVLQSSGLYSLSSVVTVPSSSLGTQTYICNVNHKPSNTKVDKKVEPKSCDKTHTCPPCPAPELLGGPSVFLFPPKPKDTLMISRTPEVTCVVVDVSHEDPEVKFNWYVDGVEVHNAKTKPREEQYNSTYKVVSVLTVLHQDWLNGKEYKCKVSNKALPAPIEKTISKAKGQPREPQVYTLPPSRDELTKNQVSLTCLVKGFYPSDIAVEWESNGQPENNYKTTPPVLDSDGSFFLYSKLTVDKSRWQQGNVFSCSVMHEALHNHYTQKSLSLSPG
light: QIVLTQSPAIMSASPGEKVTMTCRASSSVSHMHWYQQKSGTSPKRWIYDTSKLASGVPARFSGSGSGTSYSLTISSVEAEDAATYYCQQWSSNPLTFGAGTKLELKRTVAAPSVFIFPPSDEQLKSGTASVVCLLNNFYPREAKVQWKVDNALQSGNSQESVTEQDSKDSTYSLSSTLTLSKADYEKHKVYACEVTHQGLSSPVTKSFNRGEC
notes: copies: 2 + 2
Turning to B13, in experiment [1], the “fold decrease in binding vs WT” value was 5 fold. For the same molecule, the binding result in experiment [2] is listed as “binds”.

B14: chCB6-huIgG1 R301N (antibody, name in EU numbering)
heavy: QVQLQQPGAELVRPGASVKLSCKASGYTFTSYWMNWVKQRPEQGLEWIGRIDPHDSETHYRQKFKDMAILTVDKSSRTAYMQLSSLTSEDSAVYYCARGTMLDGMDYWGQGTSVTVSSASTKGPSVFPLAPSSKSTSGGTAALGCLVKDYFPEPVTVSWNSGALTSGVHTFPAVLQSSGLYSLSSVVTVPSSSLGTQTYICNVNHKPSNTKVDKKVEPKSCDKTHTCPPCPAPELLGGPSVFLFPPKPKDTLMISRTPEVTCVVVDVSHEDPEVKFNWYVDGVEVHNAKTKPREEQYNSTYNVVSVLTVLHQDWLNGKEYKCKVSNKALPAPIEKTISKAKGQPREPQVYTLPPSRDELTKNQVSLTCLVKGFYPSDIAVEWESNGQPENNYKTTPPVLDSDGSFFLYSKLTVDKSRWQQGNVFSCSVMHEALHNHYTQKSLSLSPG
light: QIVLTQSPAIMSASPGEKVTMTCRASSSVSHMHWYQQKSGTSPKRWIYDTSKLASGVPARFSGSGSGTSYSLTISSVEAEDAATYYCQQWSSNPLTFGAGTKLELKRTVAAPSVFIFPPSDEQLKSGTASVVCLLNNFYPREAKVQWKVDNALQSGNSQESVTEQDSKDSTYSLSSTLTLSKADYEKHKVYACEVTHQGLSSPVTKSFNRGEC
notes: copies: 2 + 2
As for B14, the “fold decrease in binding vs WT” value amounted to 5 fold in experiment [1] and 3 fold in experiment [2].

B15: chCB6-huIgG1 I332D/H435S (antibody, name in EU numbering)
heavy: not shown
light: QIVLTQSPAIMSASPGEKVTMTCRASSSVSHMHWYQQKSGTSPKRWIYDTSKLASGVPARFSGSGSGTSYSLTISSVEAEDAATYYCQQWSSNPLTFGAGTKLELKRTVAAPSVFIFPPSDEQLKSGTASVVCLLNNFYPREAKVQWKVDNALQSGNSQESVTEQDSKDSTYSLSSTLTLSKADYEKHKVYACEVTHQGLSSPVTKSFNRGEC
notes: copies: 2 + 2
Take B15: the binding result in experiment [3] is listed as “binds”.

B16: chCB6-huIgG1 S239D/H435G (antibody, name in EU numbering)
heavy: not shown
light: QIVLTQSPAIMSASPGEKVTMTCRASSSVSHMHWYQQKSGTSPKRWIYDTSKLASGVPARFSGSGSGTSYSLTISSVEAEDAATYYCQQWSSNPLTFGAGTKLELKRTVAAPSVFIFPPSDEQLKSGTASVVCLLNNFYPREAKVQWKVDNALQSGNSQESVTEQDSKDSTYSLSSTLTLSKADYEKHKVYACEVTHQGLSSPVTKSFNRGEC
notes: copies: 2 + 2
As for B16, the “fold increase in binding vs WT” value in experiment [3] stood at 3 fold.

B17: chCB6-huIgG1 R301S (antibody, name in EU numbering)
heavy: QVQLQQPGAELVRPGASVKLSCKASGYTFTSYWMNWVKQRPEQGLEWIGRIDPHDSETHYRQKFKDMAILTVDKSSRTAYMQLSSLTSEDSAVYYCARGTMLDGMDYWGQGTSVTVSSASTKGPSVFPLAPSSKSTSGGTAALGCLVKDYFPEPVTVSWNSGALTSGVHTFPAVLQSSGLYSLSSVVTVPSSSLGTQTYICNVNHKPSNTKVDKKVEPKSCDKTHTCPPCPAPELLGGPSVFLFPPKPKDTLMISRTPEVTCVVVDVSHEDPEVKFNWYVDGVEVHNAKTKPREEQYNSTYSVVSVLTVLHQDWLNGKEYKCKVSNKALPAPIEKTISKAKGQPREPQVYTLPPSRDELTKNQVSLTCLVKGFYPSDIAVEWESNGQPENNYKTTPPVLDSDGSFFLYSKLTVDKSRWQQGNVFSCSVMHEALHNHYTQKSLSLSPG
light: QIVLTQSPAIMSASPGEKVTMTCRASSSVSHMHWYQQKSGTSPKRWIYDTSKLASGVPARFSGSGSGTSYSLTISSVEAEDAATYYCQQWSSNPLTFGAGTKLELKRTVAAPSVFIFPPSDEQLKSGTASVVCLLNNFYPREAKVQWKVDNALQSGNSQESVTEQDSKDSTYSLSSTLTLSKADYEKHKVYACEVTHQGLSSPVTKSFNRGEC
notes: copies: 2 + 2
For the molecule B17, the binding result in experiment [1] and in experiment [2] was “binds” throughout.

These data come from patent publication US20100203046A1 (Biogen, published 2010).
